The text below walks through data of patent US6861508B2, “Transcriptional intermediary factor-2” (Institut National de la Sante et de la Recherche Medicale, priority 1996, dated 2005).

In experiment [1] the test system is ER. Description: CAT reporter transactivation by ER with TIF2/TIF2.1 coexpression. In kind it is cell-based. Conditions: HeLa, Cos-1 cells. Here is the method:
(b) HeLa cells were cotransfected with 5 μg Vit-tk-CAT and the indicated amount of HEGO, with or without 5 μg TIF2.1 in the presence of […] E2 or OHT. CAT activity is given relative to that induced by 100 ng HEGO in presence of E2.
(d) HeLa (lanes 1-12) or Cos-1 lanes 13-18) cells were transfected with 5 fig GRE-TATA-CAT (lanes 1-6) or 1 μg MMTV-CAT (lanes 7-18) together with 1 μg hPR with or without 3 μg TIF 2 in presence or absence of […] of the indicated ligand. • (e) Cos-1 cells were cotransfected with 1 μg Vit-tk-CAT and 1 μg HEGO with or without 3 μg TIF2 in presence or absence of 10^−6 M of the indicated ligands.
TIF2-stimulation is to some extent affected by the promoter environment of the responsive gene, as the TIF2 effect on PR/5020-induced transactivation was greater for a complex (MMTV) than for a minimal (GRE-TATA) promoter, although the latter was also reproducibly stimulated (FIG. 5d).

Experiment [2] addresses T1, TIF2.1 (TIF2 amino acids 624 to 1287) (human, UniProt Q15596 624-1287).
T1 construct: Form without a stated tag: expression-library clone, expressed in Cos cells from pSG5, or in-vitro-translated; also called cytoplasmic TIF2.1 polypeptide
T1 sequence: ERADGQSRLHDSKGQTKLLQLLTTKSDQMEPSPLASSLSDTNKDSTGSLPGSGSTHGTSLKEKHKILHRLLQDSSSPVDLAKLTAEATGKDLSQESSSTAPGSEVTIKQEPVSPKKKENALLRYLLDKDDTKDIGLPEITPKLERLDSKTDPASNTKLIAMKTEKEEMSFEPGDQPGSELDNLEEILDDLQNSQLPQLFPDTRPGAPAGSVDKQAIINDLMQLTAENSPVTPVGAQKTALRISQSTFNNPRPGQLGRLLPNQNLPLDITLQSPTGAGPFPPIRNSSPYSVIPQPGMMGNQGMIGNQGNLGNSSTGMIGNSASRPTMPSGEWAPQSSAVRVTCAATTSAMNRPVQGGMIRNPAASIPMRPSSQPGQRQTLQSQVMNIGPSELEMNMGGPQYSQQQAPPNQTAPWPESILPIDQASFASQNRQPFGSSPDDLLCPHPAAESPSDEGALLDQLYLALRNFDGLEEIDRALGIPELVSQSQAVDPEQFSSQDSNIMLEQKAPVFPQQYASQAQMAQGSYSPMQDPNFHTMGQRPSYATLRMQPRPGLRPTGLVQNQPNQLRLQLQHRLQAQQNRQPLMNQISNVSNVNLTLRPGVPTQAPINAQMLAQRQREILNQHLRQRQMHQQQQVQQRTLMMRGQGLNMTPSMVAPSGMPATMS
Description: Far-Western blot with 32P-labelled NR LBD probe, agonist present.

For experiment [3], the target named is T2, transcriptional intermediary factor-2 (TIF2) (human, UniProt Q15596 1-1464).
T2 construct: Full length: endogenous protein of cell extracts (HeLa, MCF-7 and others), protein from transfected Cos-1 cells, or in-vitro-translated; also called 160-kDa protein
T2 sequence (Q15596 whole entry P1420S): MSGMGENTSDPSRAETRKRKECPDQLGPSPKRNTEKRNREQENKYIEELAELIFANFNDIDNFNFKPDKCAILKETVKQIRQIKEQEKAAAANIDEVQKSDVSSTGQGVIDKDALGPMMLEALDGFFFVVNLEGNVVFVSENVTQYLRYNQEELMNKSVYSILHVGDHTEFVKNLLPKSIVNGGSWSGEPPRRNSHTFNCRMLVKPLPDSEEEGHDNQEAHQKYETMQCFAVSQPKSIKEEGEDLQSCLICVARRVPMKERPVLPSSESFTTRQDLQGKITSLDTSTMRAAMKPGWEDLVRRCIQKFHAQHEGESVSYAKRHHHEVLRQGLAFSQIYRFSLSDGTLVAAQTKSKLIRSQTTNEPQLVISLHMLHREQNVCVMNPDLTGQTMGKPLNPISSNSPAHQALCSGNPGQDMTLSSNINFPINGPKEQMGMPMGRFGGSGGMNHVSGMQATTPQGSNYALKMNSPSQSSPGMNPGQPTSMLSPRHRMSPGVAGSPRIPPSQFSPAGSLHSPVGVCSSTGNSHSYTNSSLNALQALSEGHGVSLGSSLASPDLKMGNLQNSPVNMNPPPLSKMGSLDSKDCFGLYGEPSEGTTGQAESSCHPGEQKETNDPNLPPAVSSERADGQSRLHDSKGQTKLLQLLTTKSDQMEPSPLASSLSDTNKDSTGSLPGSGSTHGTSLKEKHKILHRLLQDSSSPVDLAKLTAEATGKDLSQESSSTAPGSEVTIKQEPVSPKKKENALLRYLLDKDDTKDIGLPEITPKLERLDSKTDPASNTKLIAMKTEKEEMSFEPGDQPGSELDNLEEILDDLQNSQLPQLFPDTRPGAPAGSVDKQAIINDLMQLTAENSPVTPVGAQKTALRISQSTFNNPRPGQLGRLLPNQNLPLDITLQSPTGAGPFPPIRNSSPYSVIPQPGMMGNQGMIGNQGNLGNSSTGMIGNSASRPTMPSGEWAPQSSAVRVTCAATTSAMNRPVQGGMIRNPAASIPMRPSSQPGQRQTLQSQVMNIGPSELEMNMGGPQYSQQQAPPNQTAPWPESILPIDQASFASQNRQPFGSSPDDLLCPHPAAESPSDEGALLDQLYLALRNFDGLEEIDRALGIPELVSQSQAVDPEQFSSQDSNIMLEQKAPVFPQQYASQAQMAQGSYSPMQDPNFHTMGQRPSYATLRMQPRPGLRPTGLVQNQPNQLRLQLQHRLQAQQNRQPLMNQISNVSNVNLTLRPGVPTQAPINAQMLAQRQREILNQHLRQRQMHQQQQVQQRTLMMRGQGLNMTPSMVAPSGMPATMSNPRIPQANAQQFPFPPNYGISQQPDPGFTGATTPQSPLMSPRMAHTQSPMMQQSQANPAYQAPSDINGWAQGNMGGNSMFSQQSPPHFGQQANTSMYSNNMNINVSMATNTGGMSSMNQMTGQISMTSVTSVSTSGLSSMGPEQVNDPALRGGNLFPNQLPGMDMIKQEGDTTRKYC
Put plainly: Far-Western blot with E2-bound 32P-GST-ER(DEF).

Experiment [4] addresses T3, (His)6-TIF2.1, E. coli-expressed purified recombinant TIF2.1 (human, UniProt Q15596 624-1287).
T3 construct: also called His-tagged TIF2.1; purified TIF2.1 protein; not shown: (His)6 tag of pET15b
T3 sequence: T1 sequence
Put plainly: GST interaction assay with E. coli-expressed TIF2.1, Western blot, agonist present. In general terms: A western blot detects proteins with antibodies after separation by electrophoresis.

Take `CC/C(=C(\c1ccc(O)cc1)c1ccc(OCCN(C)C)cc1)c1ccccc1` [hydroxytamoxifen]: the “stimulation by TIF2.1 of transactivation by antagonist-bound ER” value in experiment [1] is “did not lead to any stimulation”.

B1: GST-hERα(DEF) (pGEX2T-hERα(DEF), amino acids 282-595) (receptor, human, UniProt P03372 282-595, looked up)
chain: SAGDMRAANLWPSPLMIKRSKKNSLALSLTADQMVSALLDAEPPILYSEYDPTRPFSEASMMGLLTNLADRELVHMINWAKRVPGFVDLTLHDQVHLLECAWLEILMIGLVWRSMEHPGKLLFAPNLLLDRNQGKCVEGMVEIFDMLLATSSRFRMMNLQGEEFVCLKSIILLNSGVYTFLSSTLKSLEEKDHIHRVLDKITDTLIHLMAKAGLTLQQQHQRLAQLLLILSHIRHMSNKGMEHLYSMKCKNVVPLYDLLLEMLDAHRLHAPTSRGGASVEETDQSHLATAGSTSSHSLQKYYITGEAEGFPATV
notes: range 282-595; Bacterially produced; also used 32P-labelled as Far-Western probe; also called GST-ER; GST-ER(DEF); not shown: glutathione-S-transferase (GST) of pGEX2T (Pharmacia)
For B1, the binding result in experiment [2] and in experiment [3] was “binds” each time.

B2: GST-hRARα(DEF) (pGEX2T-hRARα(DEF), amino acids 153-462) (receptor, human, UniProt P10276 153-462, looked up)
chain: MSKESVRNDRNKKKKEVPKPECSESYTLTPEVGELIEKVRKAHQETFPALCQLGKYTTNNSSEQRVSLDIDLWDKFSELSTKCIIKTVEFAKQLPGFTTLTIADQITLLKAACLDILILRICTRYTPEQDTMTFSDGLTLNRTQMHNAGFGPLTDLVFAFANQLLPLEMDDAETGLLSAICLICGDRQDLEQPDRVDMLQEPLLEALKVYVRKRRPSRPHMFPKMLMKITDLRSISAKGAERVITLKMEIPGSMPPLIQEMLENSEGLDTLSGQPGGGGRDGGGLAPPPGSCSPSLSPSSNRSSPATHSP
notes: range 153-462; Bacterially produced; also called GST-RAR; GST-RARα(DEF); not shown: glutathione-S-transferase (GST) of pGEX2T (Pharmacia)
Take B2: the binding result in experiment [2] and in experiment [4] was “binds” each time.
